Data published in paper PMC3919604, “Single-molecule characterization of Fen1 and Fen1/PCNA complexes acting on flap substrates” (Nucleic Acids Research, 2013).

How the values were obtained:
[1] = target: Fen1 (Saccharolobus solfataricus) (UniProt Q980U8); conditions: cited from earlier work
[2] = tested on: Fen1 (flap endonuclease 1) (Sulfolobus solfataricus); assay: FRET titration; conditions: 10 mM Ca2+, no PCNA; 10 mM Ca2+ (prevents cleavage), 20 C / room temperature; binding buffer, salt and pH not in held text (hybridization buffer 20 mM Tris-HCl pH 7.8, 25 mM NaCl)
[3] = tested on: Fen1 (flap endonuclease 1);PCNA heterotrimer (PCNA1/PCNA2/PCNA3) (Sulfolobus solfataricus;Sulfolobus solfataricus); assay: FRET titration; conditions: Fen1 titrated with 2 uM PCNA, 10 mM Ca2+; 10 mM Ca2+ (prevents cleavage), 20 C / room temperature; binding buffer, salt and pH not in held text (hybridization buffer 20 mM Tris-HCl pH 7.8, 25 mM NaCl)
[4] = tested on: Fen1 (flap endonuclease 1) (Sulfolobus solfataricus); assay: ensemble FRET; conditions: 10 mM Ca2+, no PCNA, 20 C; 10 mM Ca2+ (prevents cleavage), 20 C / room temperature; binding buffer, salt and pH not in held text (hybridization buffer 20 mM Tris-HCl pH 7.8, 25 mM NaCl)
[5] = tested on: Fen1 (flap endonuclease 1);PCNA heterotrimer (PCNA1/PCNA2/PCNA3) (Sulfolobus solfataricus;Sulfolobus solfataricus); assay: ensemble FRET; conditions: Fen1 titrated with 2 uM PCNA, 10 mM Ca2+, 20 C; 10 mM Ca2+ (prevents cleavage), 20 C / room temperature; binding buffer, salt and pH not in held text (hybridization buffer 20 mM Tris-HCl pH 7.8, 25 mM NaCl)
[6] = tested on: Fen1 (flap endonuclease 1);PCNA heterotrimer (PCNA1/PCNA2/PCNA3) (Sulfolobus solfataricus;Sulfolobus solfataricus); assay: PIFE (Cy3); conditions: PCNA titrated with 5 uM Fen1, 10 mM Ca2+; 10 mM Ca2+ (prevents cleavage), 20 C / room temperature; binding buffer, salt and pH not in held text (hybridization buffer 20 mM Tris-HCl pH 7.8, 25 mM NaCl)
[7] = tested on: Fen1 (flap endonuclease 1);PCNA12 heterodimer (PCNA1/PCNA2) (Sulfolobus solfataricus;Sulfolobus solfataricus); assay: PIFE (Cy3); conditions: PCNA12 titrated with 5 uM Fen1, 10 mM Ca2+; 10 mM Ca2+ (prevents cleavage), 20 C / room temperature; binding buffer, salt and pH not in held text (hybridization buffer 20 mM Tris-HCl pH 7.8, 25 mM NaCl)
[8] = tested on: Fen1 (flap endonuclease 1);PCNA-Cy5 heterotrimer (Sulfolobus solfataricus;Sulfolobus solfataricus); assay: intermolecular FRET; conditions: PCNA-Cy5 titrated with 5 uM Fen1; substrate of the Kd fit not explicitly stated; 10 mM Ca2+ (prevents cleavage), 20 C / room temperature; binding buffer, salt and pH not in held text (hybridization buffer 20 mM Tris-HCl pH 7.8, 25 mM NaCl)
[9] = tested on: Fen1 (flap endonuclease 1) (Sulfolobus solfataricus); assay: smFRET; conditions: 10 mM Ca2+, no PCNA; 10 mM Ca2+ (prevents cleavage), 20 C / room temperature; binding buffer, salt and pH not in held text (hybridization buffer 20 mM Tris-HCl pH 7.8, 25 mM NaCl)
[10] = tested on: Fen1 (flap endonuclease 1);PCNA heterotrimer (PCNA1/PCNA2/PCNA3) (Sulfolobus solfataricus;Sulfolobus solfataricus); assay: smFRET; conditions: Fen1 titrated with 2 uM PCNA, 10 mM Ca2+; 10 mM Ca2+ (prevents cleavage), 20 C / room temperature; binding buffer, salt and pH not in held text (hybridization buffer 20 mM Tris-HCl pH 7.8, 25 mM NaCl)
[11] = target: T1, Cy5 acceptor-labelled Sulfolobus solfataricus PCNA heterotrimer (PCNA1 N131C-Cy5, PCNA2, PCNA3) (Sulfolobus solfataricus, UniProt P57766 1-249; Q97Z84 1-245; P57765 1-244, N131C, Cy5-maleimide on the single cysteine of N131C); assay: FRET or BRET; ensemble inter-molecular FRET between Cy3-labelled double-flap DNA and Cy5-labelled PCNA; PCNA-Cy5 titrated, DNA pre-equilibrated with 5 uM Fen1; conditions: both partners purified
T1 construct: PCNA1 subunit, Sulfolobus solfataricus, with the point mutation N131C; PCNA2 subunit, Sulfolobus solfataricus, unlabelled; PCNA3 subunit, Sulfolobus solfataricus, unlabelled; Labelling yield about 80%; also called PCNA-Cy5; acceptor-labelled PCNA; copies: + +
T1 sequence (looked up) 1: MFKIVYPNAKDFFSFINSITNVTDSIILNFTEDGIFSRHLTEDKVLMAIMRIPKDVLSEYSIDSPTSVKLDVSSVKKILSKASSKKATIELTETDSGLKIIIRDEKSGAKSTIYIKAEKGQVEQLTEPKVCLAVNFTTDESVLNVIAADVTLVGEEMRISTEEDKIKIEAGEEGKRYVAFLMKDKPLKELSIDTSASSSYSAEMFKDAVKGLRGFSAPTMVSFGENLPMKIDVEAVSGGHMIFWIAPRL
T1 sequence (looked up) 2: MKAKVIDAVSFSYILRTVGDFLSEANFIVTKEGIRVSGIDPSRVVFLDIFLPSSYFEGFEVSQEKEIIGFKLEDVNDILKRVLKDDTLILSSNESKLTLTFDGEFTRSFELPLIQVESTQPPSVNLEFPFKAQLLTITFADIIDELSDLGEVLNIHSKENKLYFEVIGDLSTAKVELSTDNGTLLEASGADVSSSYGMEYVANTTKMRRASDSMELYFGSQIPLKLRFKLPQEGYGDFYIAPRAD
T1 sequence (looked up) 3: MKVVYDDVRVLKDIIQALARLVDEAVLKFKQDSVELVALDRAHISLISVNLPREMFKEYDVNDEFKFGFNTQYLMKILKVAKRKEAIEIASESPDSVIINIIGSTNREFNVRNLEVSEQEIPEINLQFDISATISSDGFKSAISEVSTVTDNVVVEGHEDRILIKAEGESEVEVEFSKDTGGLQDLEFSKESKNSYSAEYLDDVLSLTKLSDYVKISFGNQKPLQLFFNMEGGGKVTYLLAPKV

[12] = target: T2, Sulfolobus solfataricus PCNA heterotrimer (PCNA1, PCNA2, PCNA3) (Sulfolobus solfataricus, UniProt P57766 1-249; Q97Z84 1-245; P57765 1-244); assay: other fluorescence titration; protein-induced fluorescence enhancement (PIFE) of Cy3 on the 3F-duplex of a double-flap DNA; PCNA or PCNA12 titrated into DNA pre-incubated with 5 uM Fen1, 10 mM Ca2+; 30 mM HEPES pH 7.6, 40 mM KCl, 5% glycerol, 0.1 mg/ml BSA, 20 C; conditions: both partners purified
T2 construct: PCNA1 subunit of the heterotrimeric PCNA, Sulfolobus solfataricus; PCNA2 subunit of the heterotrimeric PCNA, Sulfolobus solfataricus; PCNA3 subunit of the heterotrimeric PCNA, Sulfolobus solfataricus; also called heterotrimeric PCNA; sliding clamp; copies: + +
T2 sequence (looked up) 1: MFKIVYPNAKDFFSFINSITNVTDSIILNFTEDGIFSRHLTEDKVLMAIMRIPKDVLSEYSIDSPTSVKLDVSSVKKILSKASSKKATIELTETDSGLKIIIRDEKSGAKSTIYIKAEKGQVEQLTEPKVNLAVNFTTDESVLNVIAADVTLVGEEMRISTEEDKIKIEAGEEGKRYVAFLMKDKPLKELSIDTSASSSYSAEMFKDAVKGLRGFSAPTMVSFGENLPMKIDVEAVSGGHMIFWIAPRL
T2 sequence (looked up) 2: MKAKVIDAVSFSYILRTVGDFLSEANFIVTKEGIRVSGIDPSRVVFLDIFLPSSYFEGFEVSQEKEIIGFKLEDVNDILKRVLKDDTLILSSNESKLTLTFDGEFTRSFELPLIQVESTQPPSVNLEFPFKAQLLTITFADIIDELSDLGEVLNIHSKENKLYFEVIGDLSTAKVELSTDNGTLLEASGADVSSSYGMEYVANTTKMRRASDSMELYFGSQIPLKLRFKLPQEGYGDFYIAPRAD
T2 sequence (looked up) 3: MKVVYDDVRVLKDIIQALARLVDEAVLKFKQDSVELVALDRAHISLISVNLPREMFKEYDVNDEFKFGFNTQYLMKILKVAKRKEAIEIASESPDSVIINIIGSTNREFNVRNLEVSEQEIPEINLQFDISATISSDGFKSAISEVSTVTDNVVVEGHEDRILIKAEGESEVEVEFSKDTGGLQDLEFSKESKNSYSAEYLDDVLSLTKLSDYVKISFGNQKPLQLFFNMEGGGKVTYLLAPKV

[13] = target: T3, Sulfolobus solfataricus PCNA1-PCNA2 heterodimer (PCNA12) (Sulfolobus solfataricus, UniProt P57766 1-249; Q97Z84 1-245); assay: as above; conditions: both partners purified
T3 construct: PCNA1 subunit, Sulfolobus solfataricus; PCNA2 subunit, Sulfolobus solfataricus; also called PCNA12 complex
T3 sequence (looked up) 1: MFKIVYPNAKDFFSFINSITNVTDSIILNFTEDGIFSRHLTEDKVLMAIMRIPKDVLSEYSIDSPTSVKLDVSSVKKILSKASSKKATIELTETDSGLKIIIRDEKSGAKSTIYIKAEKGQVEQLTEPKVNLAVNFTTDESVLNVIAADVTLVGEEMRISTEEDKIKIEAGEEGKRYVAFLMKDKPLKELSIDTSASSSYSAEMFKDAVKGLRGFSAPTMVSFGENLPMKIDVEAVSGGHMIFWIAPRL
T3 sequence (looked up) 2: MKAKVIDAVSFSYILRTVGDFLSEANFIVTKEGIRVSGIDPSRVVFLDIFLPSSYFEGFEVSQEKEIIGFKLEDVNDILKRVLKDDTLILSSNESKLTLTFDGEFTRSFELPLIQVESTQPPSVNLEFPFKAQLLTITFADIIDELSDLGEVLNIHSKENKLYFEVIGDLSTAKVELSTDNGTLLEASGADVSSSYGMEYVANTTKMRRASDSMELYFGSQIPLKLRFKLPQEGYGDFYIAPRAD

In the case of PCNA (from UniProt P57766), the Kd [1] is given as 210 nM.

With “5'-flap substrate lacking the 3' extrahelical nucleotide” the Kd [2] was greater than 10000 nM and the Kd [3] was 700 nM.

“Flap-12/23/13 double flap (global fit of three labelled versions)” gave a Kd [4] of 14 nM and a Kd [5] of 3 nM.

Double flap, Cy3 in 3F-duplex showed a Kd [6] of 160 nM, a Kd [7] of 360 nM and a Kd [8] of 117 nM.

“Flap-23 double flap, single-molecule, Cy3/Cy5, biotin” gave a Kd [9] of 23 nM and a Kd [10] of 1.6 nM.

B1: Sulfolobus solfataricus Flap endonuclease 1 (Fen1) (enzyme, UniProt Q980U8 1-349, looked up)
chain: MDLADLVKDVKRELSFSELKGKRVSIDGYNALYQFLAAIRQPDGTPLMDSQGRVTSHLSGLFYRTINILEEGVIPIYVFDGKPPEQKSEELERRRKAKEEAERKLERAKSEGKIEELRKYSQAILRLSNIMVEESKKLLRAMGIPIVQAPSEGEAEAAYLNKLGLSWAAASQDYDAILFGAKRLVRNLTITGKRKLPNKDVYVEIKPELIETEILLKKLGITREQLIDIGILIGTDYNPDGIRGIGPERALKIIKKYGKIEKAMEYGEISKKDINFNIDEIRGLFLNPQVVKPEEALDLNEPNGEDIINILVYEHNFSEERVKNGIERLTKAIKEAKGASRQTGLDRWF
notes: Flap endonuclease 1 (Fen1), Sulfolobus solfataricus
With B1 the Kd [11] was 117 ± 34 nM, the Kd [12] was 160 ± 14 nM and the Kd [13] was 360 ± 30 nM.
